Earlier results on two molecules are cited in patent US20240366723A1, “COMBINATION THERAPY FOR THE TREATMENT OF ENTERIC NEUROPATHIES” (TRANSFERT PLUS, LIMITED PARTNERSHIP, priority 2021, published 2024).

For this data set the following is noted: literature reports, various models.

B1: MANF: Mesencephalic Astrocyte Derived Neurotrophic Factor (protein, UniProt P55145 25-182, looked up)
Mesencephalic …: LRPGDCEVCISYLGRFYQDLKDRDVTFSPATIENELIKFCREARGKENRLCYYIGATDDAATKIINEVSKPLAHHIPVEKICEKLKKKDSQICELKYDKQIDLSTVDLKKLRVKELKKILDDWGETCKGCAEKSDYIRKINELMPKYAPKAASARTDL
For the molecule B1, the Reported neurotrophic activity result is “MANF has neuroregenerative activity via differentiation”.

B2: BMP4: Bone morphogenetic protein 4 (protein, UniProt P12644 293-408, looked up)
Bone morphogenetic protein 4: SPKHHSQRARKKNKNCRRHSLYVDFSDVGWNDWIVAPPGYQAFYCHGDCPFPLADHLNSTNHAIVQTLVNSVNSSIPKACCVPTELSAISMLYLDEYDKVVLKNYQEMVVEGCGCR
For the molecule B2, the Reported neurotrophic activity result is on record as “BMP signaling is necessary for neural crest cell”.
